This note sets out measurements from the supplement of paper PMC9112550, “Optimization of the antimicrobial peptide Bac7 by deep mutational scanning” (BMC Biology, 2022).

This series has as its system Escherichia coli TOP10. The series can be described thus: shrunken log2 fold change of peptide-encoding DNA abundance (4.5 h post-induction vs induction); higher = less antimicrobial activity (less host growth inhibition). To be noted: time post-induction: 4.5 h; library: site-saturation at positions 5, 18, 19, 20.
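Also: peptides expressed intracellularly from a pBAD plasmid library in pooled LB shake-flask culture, induced with 0.3% L-arabinose, DNA abundance read by NGS, three biological replicates, DESeq2 with apeglm shrinkage.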

For the sequence RRIRRRPPRLPRPRPRPRSSPRP, the “shrunken log2 fold change” value came to 0.0954.

RRIRDRPPRLPRPRPRPKVDPRP: the “shrunken log2 fold change” value was -0.118.

Consider RRIRSRPPRLPRPRPRPCWFPRP, for which the “shrunken log2 fold change” value was -0.0822.

Consider RRIRNRPPRLPRPRPRPWKFPRP, for which the “shrunken log2 fold change” value was -0.0447.

RRIRSRPPRLPRPRPRPYIDPRP: the “shrunken log2 fold change” value was -0.071.

For the sequence RRIRVRPPRLPRPRPRPSVKPRP, the “shrunken log2 fold change” value is -0.155.

For RRIRKRPPRLPRPRPRPFFWPRP, the “shrunken log2 fold change” value was found to be 1.09.

Regarding RRIRPRPPRLPRPRPRPWQNPRP, the “shrunken log2 fold change” value is -0.136.

In the case of RRIRFRPPRLPRPRPRPKAEPRP, the “shrunken log2 fold change” value stood at 0.00911.

Regarding RRIRFRPPRLPRPRPRPATEPRP, the “shrunken log2 fold change” value came out at 0.0616.

On to RRIRFRPPRLPRPRPRPGDPPRP, for which the “shrunken log2 fold change” value was 0.566.

For the sequence RRIRDRPPRLPRPRPRPGISPRP, the “shrunken log2 fold change” value came out at 0.0115.

RRIRKRPPRLPRPRPRPNHRPRP: the “shrunken log2 fold change” value was -0.334.

Regarding RRIRQRPPRLPRPRPRPNGPPRP, the “shrunken log2 fold change” value is -0.011.

Turning to RRIRARPPRLPRPRPRPTARPRP, the “shrunken log2 fold change” value is 0.874.

Consider RRIRGRPPRLPRPRPRPCWYPRP, for which the “shrunken log2 fold change” value was determined as 0.0725.

Take RRIRRRPPRLPRPRPRPTHEPRP: the “shrunken log2 fold change” value stood at 0.338.

For RRIRIRPPRLPRPRPRPQYQPRP, the “shrunken log2 fold change” value is -0.769.

Regarding RRIRGRPPRLPRPRPRPYNNPRP, the “shrunken log2 fold change” value is -0.321.

Take RRIRDRPPRLPRPRPRPGYGPRP: the “shrunken log2 fold change” value was -0.0481.

In the case of RRIRWRPPRLPRPRPRPPNDPRP, the “shrunken log2 fold change” value is 0.0849.

For RRIRARPPRLPRPRPRPTLNPRP, the “shrunken log2 fold change” value is 0.496.

Consider RRIRFRPPRLPRPRPRPFFKPRP, for which the “shrunken log2 fold change” value was -0.251.

As to RRIRIRPPRLPRPRPRPHEPPRP, the “shrunken log2 fold change” value was -0.129.

For RRIRCRPPRLPRPRPRPSEPPRP, the “shrunken log2 fold change” value is -0.184.

As for RRIRMRPPRLPRPRPRPSFSPRP, the “shrunken log2 fold change” value is -0.176.

With RRIRNRPPRLPRPRPRPESDPRP, the “shrunken log2 fold change” value came out at 0.648.

Consider RRIRMRPPRLPRPRPRPMHIPRP, for which the “shrunken log2 fold change” value was found to be 0.0159.

For RRIRGRPPRLPRPRPRPQMRPRP, the “shrunken log2 fold change” value is 0.899.

With RRIRVRPPRLPRPRPRPTVRPRP, the “shrunken log2 fold change” value stood at 0.126.

As to RRIRARPPRLPRPRPRPNPMPRP, the “shrunken log2 fold change” value stood at 0.287.

Turning to RRIRERPPRLPRPRPRPRPAPRP, the “shrunken log2 fold change” value is 0.434.

On to RRIRGRPPRLPRPRPRPKKPPRP, for which the “shrunken log2 fold change” value was -0.0158.

As to RRIRDRPPRLPRPRPRPQQPPRP, the “shrunken log2 fold change” value is 0.902.

On to RRIRSRPPRLPRPRPRPIEMPRP, for which the “shrunken log2 fold change” value was -0.0731.

Regarding RRIRWRPPRLPRPRPRPDPHPRP, the “shrunken log2 fold change” value amounted to 0.135.

Take RRIRTRPPRLPRPRPRPEKHPRP: the “shrunken log2 fold change” value turned out to be 0.0385.

As to RRIRFRPPRLPRPRPRPLKNPRP, the “shrunken log2 fold change” value is -0.193.

In the case of RRIRDRPPRLPRPRPRPSTDPRP, the “shrunken log2 fold change” value was 0.0145.

For RRIRNRPPRLPRPRPRPQLVPRP, the “shrunken log2 fold change” value is -0.0147.

Regarding RRIRFRPPRLPRPRPRPMIHPRP, the “shrunken log2 fold change” value was -0.0677.

Consider RRIRFRPPRLPRPRPRPSMAPRP, for which the “shrunken log2 fold change” value is 0.0143.

Consider RRIRVRPPRLPRPRPRPESCPRP, for which the “shrunken log2 fold change” value is 0.242.

With RRIRERPPRLPRPRPRPCMWPRP, the “shrunken log2 fold change” value is -0.233.

As to RRIRSRPPRLPRPRPRPMWGPRP, the “shrunken log2 fold change” value was -0.0451.

For RRIRLRPPRLPRPRPRPPADPRP, the “shrunken log2 fold change” value amounted to 0.797.

As to RRIRRRPPRLPRPRPRPQFTPRP, the “shrunken log2 fold change” value is -0.0485.

For the sequence RRIRGRPPRLPRPRPRPHLWPRP, the “shrunken log2 fold change” value was 0.942.

For the sequence RRIRGRPPRLPRPRPRPWVWPRP, the “shrunken log2 fold change” value was 0.368.

RRIRYRPPRLPRPRPRPIGQPRP: the “shrunken log2 fold change” value is 0.013.

Consider RRIRHRPPRLPRPRPRPDFFPRP, for which the “shrunken log2 fold change” value is -0.26.

In the case of RRIRMRPPRLPRPRPRPYLHPRP, the “shrunken log2 fold change” value was -0.437.

In the case of RRIRYRPPRLPRPRPRPAIGPRP, the “shrunken log2 fold change” value was -0.105.

Take RRIRGRPPRLPRPRPRPKLNPRP: the “shrunken log2 fold change” value was 0.69.

In the case of RRIRMRPPRLPRPRPRPHEWPRP, the “shrunken log2 fold change” value is 0.624.

Take RRIRWRPPRLPRPRPRPYSPPRP: the “shrunken log2 fold change” value is -1.1.

With RRIRERPPRLPRPRPRPLIAPRP, the “shrunken log2 fold change” value was -0.128.

Turning to RRIRARPPRLPRPRPRPLHRPRP, the “shrunken log2 fold change” value stood at 0.281.

For RRIRARPPRLPRPRPRPMANPRP, the “shrunken log2 fold change” value was found to be 0.285.

Regarding RRIRDRPPRLPRPRPRPEESPRP, the “shrunken log2 fold change” value is 0.14.

For RRIRQRPPRLPRPRPRPSTIPRP, the “shrunken log2 fold change” value is -0.0567.

For the sequence RRIRLRPPRLPRPRPRPPFGPRP, the “shrunken log2 fold change” value turned out to be 0.0044.

Turning to RRIRRRPPRLPRPRPRPETCPRP, the “shrunken log2 fold change” value is -0.00655.

Take RRIRWRPPRLPRPRPRPHSCPRP: the “shrunken log2 fold change” value is -0.0379.

Take RRIRTRPPRLPRPRPRPCMMPRP: the “shrunken log2 fold change” value is -0.52.

With RRIRCRPPRLPRPRPRPVVKPRP, the “shrunken log2 fold change” value worked out at 0.0236.

On to RRIRLRPPRLPRPRPRPWGLPRP, for which the “shrunken log2 fold change” value is 0.171.

Consider RRIRTRPPRLPRPRPRPAETPRP, for which the “shrunken log2 fold change” value turned out to be 0.139.

Consider RRIRYRPPRLPRPRPRPNIWPRP, for which the “shrunken log2 fold change” value was -0.302.

Take RRIRDRPPRLPRPRPRPWSYPRP: the “shrunken log2 fold change” value is -1.29.

Consider RRIRIRPPRLPRPRPRPFSWPRP, for which the “shrunken log2 fold change” value is 0.0705.

In the case of RRIRWRPPRLPRPRPRPGWIPRP, the “shrunken log2 fold change” value turned out to be 0.207.

Regarding RRIRPRPPRLPRPRPRPVSMPRP, the “shrunken log2 fold change” value is 1.41.

With RRIRQRPPRLPRPRPRPIWGPRP, the “shrunken log2 fold change” value is -0.105.

Regarding RRIRHRPPRLPRPRPRPVEMPRP, the “shrunken log2 fold change” value was -0.0679.

For the sequence RRIRGRPPRLPRPRPRPEANPRP, the “shrunken log2 fold change” value stood at 0.632.

On to RRIRLRPPRLPRPRPRPRKQPRP, for which the “shrunken log2 fold change” value came to 0.0587.

In the case of RRIRVRPPRLPRPRPRPPPYPRP, the “shrunken log2 fold change” value is 0.233.

As for RRIRKRPPRLPRPRPRPKYRPRP, the “shrunken log2 fold change” value was -0.00889.

As for RRIRERPPRLPRPRPRPFFNPRP, the “shrunken log2 fold change” value was 1.38.

Turning to RRIRIRPPRLPRPRPRPEARPRP, the “shrunken log2 fold change” value worked out at 0.312.

For the sequence RRIRKRPPRLPRPRPRPGRNPRP, the “shrunken log2 fold change” value was -0.105.

As for RRIRQRPPRLPRPRPRPPPIPRP, the “shrunken log2 fold change” value came to 0.467.

On to RRIRFRPPRLPRPRPRPAGSPRP, for which the “shrunken log2 fold change” value is -0.139.

In the case of RRIRCRPPRLPRPRPRPIICPRP, the “shrunken log2 fold change” value was -0.442.

As to RRIRDRPPRLPRPRPRPESAPRP, the “shrunken log2 fold change” value came out at 0.345.

Turning to RRIRGRPPRLPRPRPRPWLAPRP, the “shrunken log2 fold change” value amounted to 0.0824.

Take RRIRKRPPRLPRPRPRPVYPPRP: the “shrunken log2 fold change” value was found to be 0.293.

Turning to RRIRERPPRLPRPRPRPANAPRP, the “shrunken log2 fold change” value was -0.0563.

For RRIRNRPPRLPRPRPRPQMPPRP, the “shrunken log2 fold change” value is -0.334.

Turning to RRIRYRPPRLPRPRPRPEGWPRP, the “shrunken log2 fold change” value was 0.489.

Regarding RRIRTRPPRLPRPRPRPGQYPRP, the “shrunken log2 fold change” value was -0.286.

With RRIRIRPPRLPRPRPRPTICPRP, the “shrunken log2 fold change” value was -0.191.

For RRIRFRPPRLPRPRPRPSTIPRP, the “shrunken log2 fold change” value is -0.45.

Regarding RRIRNRPPRLPRPRPRPDFDPRP, the “shrunken log2 fold change” value was -0.0771.

Turning to RRIRKRPPRLPRPRPRPCPFPRP, the “shrunken log2 fold change” value is -0.223.

Regarding RRIRDRPPRLPRPRPRPSVSPRP, the “shrunken log2 fold change” value worked out at 0.0104.

With RRIRHRPPRLPRPRPRPPPWPRP, the “shrunken log2 fold change” value is 0.446.

Turning to RRIRARPPRLPRPRPRPKFYPRP, the “shrunken log2 fold change” value is -0.214.

Turning to RRIRIRPPRLPRPRPRPIDEPRP, the “shrunken log2 fold change” value worked out at 0.0184.

As to RRIRPRPPRLPRPRPRPYKNPRP, the “shrunken log2 fold change” value was -0.775.

As for RRIRCRPPRLPRPRPRPNCAPRP, the “shrunken log2 fold change” value was 0.00777.

Regarding RRIRGRPPRLPRPRPRPQCGPRP, the “shrunken log2 fold change” value came out at 0.601.

For RRIRMRPPRLPRPRPRPVRHPRP, the “shrunken log2 fold change” value worked out at 0.237.

Consider RRIRFRPPRLPRPRPRPWDRPRP, for which the “shrunken log2 fold change” value is -0.167.

As for RRIRGRPPRLPRPRPRPSYMPRP, the “shrunken log2 fold change” value was -0.0696.

On to RRIRGRPPRLPRPRPRPGTAPRP, for which the “shrunken log2 fold change” value came out at 2.14.

As for RRIRMRPPRLPRPRPRPYNGPRP, the “shrunken log2 fold change” value was -0.289.

RRIRTRPPRLPRPRPRPDKPPRP: the “shrunken log2 fold change” value worked out at 0.0877.

As to RRIRRRPPRLPRPRPRPCYWPRP, the “shrunken log2 fold change” value was 0.00692.

For the sequence RRIRNRPPRLPRPRPRPWWDPRP, the “shrunken log2 fold change” value was -0.00674.

RRIRERPPRLPRPRPRPNESPRP: the “shrunken log2 fold change” value was found to be 0.0842.

RRIRWRPPRLPRPRPRPLGFPRP: the “shrunken log2 fold change” value was found to be 0.239.

As for RRIRKRPPRLPRPRPRPHVYPRP, the “shrunken log2 fold change” value was 0.22.

For RRIRVRPPRLPRPRPRPMGKPRP, the “shrunken log2 fold change” value was -0.0406.

As for RRIRKRPPRLPRPRPRPNGYPRP, the “shrunken log2 fold change” value was found to be 0.0664.

In the case of RRIRYRPPRLPRPRPRPVGCPRP, the “shrunken log2 fold change” value was -0.284.

Consider RRIRRRPPRLPRPRPRPMWKPRP, for which the “shrunken log2 fold change” value was -0.0119.

On to RRIRARPPRLPRPRPRPPEMPRP, for which the “shrunken log2 fold change” value is 0.515.

Regarding RRIRLRPPRLPRPRPRPPAAPRP, the “shrunken log2 fold change” value amounted to 0.771.

On to RRIRTRPPRLPRPRPRPGTRPRP, for which the “shrunken log2 fold change” value came to 0.2.

Regarding RRIRFRPPRLPRPRPRPDTLPRP, the “shrunken log2 fold change” value was -0.0946.

RRIRSRPPRLPRPRPRPHGCPRP: the “shrunken log2 fold change” value was -0.0029.

As to RRIRVRPPRLPRPRPRPNRAPRP, the “shrunken log2 fold change” value turned out to be 0.202.

RRIRLRPPRLPRPRPRPGHLPRP: the “shrunken log2 fold change” value was determined as 0.00551.
